Where a chain is given by its changes, count along the chain named. Where two headings read alike, the source gives them in different places. Blank lines part the entries; values can stand above or below the binder they belong to.
What was measured:
recombinant human IL-4 [1] = molecular target: T1, recombinant human IL-4 (human, UniProt P05112 25-153); test: cell-based or functional assay
T1 sequence (looked up): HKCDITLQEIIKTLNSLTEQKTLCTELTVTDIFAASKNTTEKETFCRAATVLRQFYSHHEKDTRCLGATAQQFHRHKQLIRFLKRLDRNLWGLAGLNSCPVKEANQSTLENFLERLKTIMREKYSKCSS

recombinant human IL-13 [2] = molecular target: T2, recombinant human IL-13 (human, UniProt P35225 35-146); test: cell-based or functional assay
recombinant human IL-33 [3] = molecular target: T3, recombinant human IL-33 (human, UniProt O95760 112-270, limits assumed); test: cell-based or functional assay
T3 sequence (looked up): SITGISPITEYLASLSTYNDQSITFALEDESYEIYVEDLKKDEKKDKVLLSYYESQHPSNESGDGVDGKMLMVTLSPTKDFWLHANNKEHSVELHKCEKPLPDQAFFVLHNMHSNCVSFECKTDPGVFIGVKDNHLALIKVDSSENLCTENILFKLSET

recombinant human IL-4 [4] = molecular target: T1, recombinant human IL-4; test: cell-based or functional assay; remark: listed apart in the source
recombinant human IL-4 [5] = molecular target: T1, recombinant human IL-4; test: cell-based or functional assay; remark: listed apart in the source
[6] = molecular target: T4, recombinant cynomolgus monkey IL-4 (cynomolgus monkey, UniProt P79339 25-153); test: cell-based or functional assay
T4 sequence (looked up): T1 sequence (looked up) with E26K, V29I, F33L

recombinant human IL-4 [7] = molecular target: T1, recombinant human IL-4; test: cell-based or functional assay; remark: listed apart in the source
recombinant human IL-13 [8] = molecular target: T2, recombinant human IL-13; test: cell-based or functional assay; remark: listed apart in the source
recombinant human IL-13 [9] = molecular target: T2, recombinant human IL-13; test: cell-based or functional assay; remark: listed apart in the source
[10] = molecular target: T5, recombinant cynomolgus monkey IL-13 (cynomolgus monkey, UniProt Q0PW92 19-132); test: cell-based or functional assay
recombinant human IL-13 [11] = molecular target: T2, recombinant human IL-13; test: cell-based or functional assay; remark: listed apart in the source
recombinant human IL-33 [12] = molecular target: T3, recombinant human IL-33; test: cell-based or functional assay; remark: listed apart in the source
IL-33 mm2 = molecular target: T6, IL-33 mm2 (human, UniProt O95760 112-270, limits assumed); test: cell-based or functional assay
T6 sequence (looked up): T3 sequence (looked up) with C97S, C116S, C121S, C148S

recombinant human IL-4 [13] = molecular target: T1, recombinant human IL-4; test: KinExA, fixed antigen format
Procedure: (§1) Samples were prepared in PBS containing 0.1% sodium azide and 1.0 mg/ml BSA. The fixed antigen assay method was used to determine binding affinity. […] Each trispecific and IL-4 cytokine were equilibrated for at least 72 hours at room temperature, then passed through a flow cell containing Polymethylmethacrylate (PMMA) beads coated with anti-hIL-4 Ab-0002 (Pfizer) that contains the same IL-4 binding domain as the trispecifics. […] Data analysis was performed with KinExA Pro software version 4.3.11 (Sapidyne). […] The ‘drift correction’ fitting option was used when responses varied between replicate injections. Two curves were obtained in independent experiments and analyzed using the ‘n-curve analysis’ tool to obtain global best fit values for the KD and active concentration of IL-4 cytokine. The software reports each best fit value along with a 95% confidence interval.

[14] = molecular target: T4, recombinant cynomolgus monkey IL-4; test: KinExA, fixed antigen format
Procedure: as §1

recombinant human IL-13 [15] = molecular target: T2, recombinant human IL-13; test: KinExA, fixed antigen format
Procedure: (§2) Samples were prepared in PBS containing 0.1% sodium azide and 1.0 mg/ml BSA. The fixed antigen assay method was used to determine binding affinity. […] Data analysis was performed with KinExA Pro software version 4.3.11 (Sapidyne). […] The ‘drift correction’ fitting option was used when responses varied between replicate injections. Two curves were obtained in independent experiments and analyzed using the ‘n-curve analysis’ tool to obtain global best fit values for the KD and active concentration of IL-13 cytokine. The software reports each best fit value along with a 95% confidence interval.

[16] = molecular target: T5, recombinant cynomolgus monkey IL-13; test: KinExA, fixed antigen format
Procedure: as §2

human IL-33 = molecular target: T7, human IL-33 (human, UniProt O95760 112-270, limits assumed); test: KinExA solution affinity, fixed antigen format
T7 construct: Limits stated for the R&D protein; also called human IL-33 WT; reduced human IL-33
T7 sequence (looked up): T3 sequence (looked up)
Procedure: Samples were prepared in PBS containing 0.1% sodium azide and 1.0 mg/mL bovine serum albumin (BSA). […] The fixed active binding concentrations (ABC) of biotinylated human IL 33 used were 10 pM and 100 pM. Biotinylated human IL-33 wild-type (WT) was reduced with 3 mM Dithiothreitol (DTT) for 2 hours at room temperature before use. The samples were allowed to equilibrate for at least 72 hours at room temperature before passing them through a flow cell that contained the test article anti-IL-33 antibody being evaluated adsorbed to polymethylmethacrylate (PMMA) beads (Sapidyne). […] Data analysis was performed with KinExA Pro software version 4.3.11 (Sapidyne). […] The ‘drift correction’ fitting option was used when responses varied between replicate injections. Two curves were obtained in independent experiments and analyzed using the ‘n-curve analysis’ tool to obtain global best fit values for the KD and active concentration of IL-33 cytokine. The software reports each best fit value along with a 95% confidence interval.

human IL-4 [17] = molecular target: T8, human IL-4 (human, UniProt P05112 25-153); test: cell-based or functional assay
T8 sequence (looked up): T1 sequence (looked up)

human IL-4 [18] = molecular target: T8, human IL-4; test: cell-based or functional assay; remark: listed apart in the source

T5 sequence (Q0PW92 entry or part of it limits assumed): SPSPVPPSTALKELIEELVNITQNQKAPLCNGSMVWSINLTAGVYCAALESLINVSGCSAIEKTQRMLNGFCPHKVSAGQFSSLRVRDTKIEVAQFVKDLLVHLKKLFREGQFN
T2 sequence (P35225 35-146 limits assumed): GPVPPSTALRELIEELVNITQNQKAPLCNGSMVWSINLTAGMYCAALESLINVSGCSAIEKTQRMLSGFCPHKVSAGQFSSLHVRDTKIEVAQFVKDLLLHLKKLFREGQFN

B1: IL13433-1258 (other)
heavy: EVQLVESGGGLVQPGGSLRLSCAASGFTFSSYWMYWVRQAPGKGLEWVAAITPNAGEDYYPESVKGRFTISRDNAKNSLYLQMNSLRAEDTAVYYCARGQYYYTKYSLGYWGQGTLVTVSSASTKGPSVFPLAPSSKSTSGGTAALGCLVKDYFPEPVTVSWNSGALTSGVHTFPAVLQSSGLYSLSSVVTVPSSSLGTQTYICNVNHKPSNTKVDKKVEPKSCRKTHTCPPCPAPEAAGAPSVFLFPPKPKDTLMISRTPEVTCVVVDVSHEDPEVKFNWYVDGVEVHNAKTKPREEQYNSTYRVVSVLTVLHQDWLNGKEYKCKVSNKALPAPIEKTISKAKGQPREPQVYTLPPSREEMTKNQVSLTCLVKGFYPSDIAVEWESNGQPENNYKTTPPVLDSDGSFFLYSRLTVDKSRWQQGNVFSCSVLHEALHSHYTQKSLSLSPGK
chain 1: DIQMTQSPSSLSASVGDRVTITCKASESVDHFGWSLVHWYQQKPGKAPKLLIYRASNLESGVPSRFSGSGSGTDFTLTISSLQPEDFATYYCQQSNEDPWTFGGGTKVEIKRTVAAPSVFIFPPSDEQLKSGTASVVCLLNNFYPREAKVQWKVDNALQSGNSQESVTEQDSKDSTYSLSSTLTLSKADYEKHKVYACEVTHQGLSSPVTKSFNRGECGGGGSEVTLRESGPALVKPTQTLTLTCTFSGFSLSNFGEGLSWIRQPPGKGLEWLAHIYWDDDKRYNPSLKSRLTISKDTSRNQVVLTMTNMDPVDTATYYCARRETVFYWYFDVWGQGTTVTVSSASTKGPSVFPLAPSSKSTSGGTAALGCLVKDYFPEPVTVSWNSGALTSGVHTFPAVLQSSGLYSLSSVVTVPSSSLGTQTYICNVNHKPSNTKVDKKVEPKSCEKTHTCPPCPAPEAAGAPSVFLFPPKPKDTLMISRTPEVTCVVVDVSHEDPEVKFNWYVDGVEVHNAKTKPREEQYNSTYRVVSVLTVLHQDWLNGKEYKCKVSNKALPAPIEKTISKAKGQPREPQVYTLPPSREEMTKNQVSLTCEVKGFYPSDIAVEWESNGQPENNYKTTPPVLDSDGSFFLYSKLTVDKSRWQQGNVFSCSVLHEALHSHYTQKSLSLSPGK
light 1: DIQMTQSPSSLSASVGDRVTITCRASQPIHNHLDWYQQKPGKAPKLLIYFGKNLQEGVPSRFSGSGSGTDFTLTISSLQPEDFATYYCFQYKKGWSFGGGTKVEIKRTVAAPSVFIFPPSDEQLKSGTASVVCLLNNFYPREAKVQWKVDNALQSGNSQESVTEQDSKDSTYSLSSTLTLSKADYEKHKVYACEVTHQGLSSPVTKSFNRGEC
light 2: DIQMTQSPSSLSASVGDRVTITCRASQSVDEEGDSYMNWYQQKPGKAPKLLIYAASNLESGVPSRFSGSGSGTDFTLTISSLQPEDFATYYCQQSNKDPPTFGGGTKVEIKRTVAAPSVFIFPPSDEQLKSGTASVVCLLNNFYPREAKVQWKVDNALQSGNSQESVTEQDSKDSTYSLSSTLTLSKADYEKHKVYACEVTHQGLSSPVTKSFNRGEC
chain 2: EVQLVESGGGLVQPGGSLRLSCAASGFTFSSYAMSWVRQAPGKGLEWVASISSGDTTYYPDSVKGRFTISRDNAKNSLYLQMNSLRAEDTAVYYCARNEGYYFGLTLWGQGTLVTVSSASTKGPSVFPLAPSSKSTSGGTAALGCLVKDYFPEPVTVSWNSGALTSGVHTFPAVLQSSGLYSLSSVVTVPSSSLGTQTYICNVNHKPSNTKVDKKVEPKSC
notes: Trispecific Tri-Fab-Fc, dual cell, EE/RR, LS; Chains in order: SFab HC(3), DFab LC(1)-HC(2), SFab LC(3), DFab LC(2), modified Fd(1)
IL-4 Induced CD23 Expression, potency of cytokine neutralization (recombinant human IL-4 [1]): 13 pM | IL-13 Induced CD23 Expression, potency of cytokine neutralization (recombinant human IL-13 [2]): 9.35 pM | IL-33 WT Activation of SEAP Reporter Cells, potency of cytokine neutralization (recombinant human IL-33 [3]): 13 pM | IC50 (median), IL-4 induced CD23 expression on human monocytes (recombinant human IL-4 [4]): 10 pM | IC50 (median), CD23 expression, Human Whole Blood (recombinant human IL-4 [5]): 23.2 pM | IC50 (median), CD23 expression, Peripheral Blood Monocytes (recombinant human IL-4 [5]): 10 pM | IC50 (median), CD23 expression, Human Whole Blood [6]: 32.1 pM | IC50 (median), CD23 expression, Peripheral Blood Monocytes [6]: 13.6 pM | IC50 (median), IL-4 induced CD23 expression on human monocytes (recombinant human IL-4 [7]): 10 pM | IC50 (median), IL-13 induced CD23 expression on human monocytes (recombinant human IL-13 [8]): 11.7 pM | IC50 (median), CD23 expression, Human Whole Blood (recombinant human IL-13 [9]): 16.1 pM | IC50 (median), CD23 expression, Peripheral Blood Monocytes (recombinant human IL-13 [9]): 11.7 pM | IC50 (median), CD23 expression, Human Whole Blood [10]: 50.5 pM | IC50 (median), CD23 expression, Peripheral Blood Monocytes [10]: 52.8 pM | IC50 (median), IL-13 induced CD23 expression on human monocytes (recombinant human IL-13 [11]): 11.7 pM | IC50 (mean), HEK-Blue IL-33 SEAP (recombinant human IL-33 [12]): 13.4 pM | IC50 (mean), IFNg Whole Blood (IL-12 plus IL-33 mm2-Cys) (IL-33 mm2): 12.5 pM | Kd (recombinant human IL-4 [13]): 0.477 pM | Kd [14]: 2.96 pM | Kd (recombinant human IL-13 [15]): 0.612 pM | Kd [16]: 0.866 pM

B3: IL33-0726 (antibody, human IgG1, kappa, V domains shown)
VH: EVQLVESGGGLVQPGGSLRLSCAASGFTFSSYWMYWVRQAPGKGLEWVAAITPNAGEDYYPESVKGRFTISRDNAKNSLYLQMNSLRAEDTAVYYCARGQYYYTKYSLGYWGQGTLVTVSS
VL: DIQMTQSPSSLSASVGDRVTITCRASQPIHNHLDWYQQKPGKAPKLLIYFGKNLQEGVPSRFSGSGSGTDFTLTISSLQPEDFATYYCFQYKKGWSFGGGTKVEIKR
notes: also called IL13433-0726; IL33-0726 IgG
fold higher affinity relative to the IL33-0352 benchmark antibody (human IL-33): ~3 fold | fold higher affinity than IL33-0232 antibody (human IL-33): ~14 fold

Continued, values first:

IC50 (median), IL-4 induced CD23 expression on human monocytes (recombinant human IL-4 [4]): 8.27 pM | IC50 (median), CD23 expression, Human Whole Blood (recombinant human IL-4 [5]): 23.6 pM | IC50 (median), CD23 expression, Peripheral Blood Monocytes (recombinant human IL-4 [5]): 8.27 pM | IC50 (median), CD23 expression, Human Whole Blood [6]: 16.4 pM | IC50 (median), CD23 expression, Peripheral Blood Monocytes [6]: 10.1 pM | IC50 (median), IL-4 induced CD23 expression on human monocytes (recombinant human IL-4 [7]): 8.27 pM | IC50 (median), IL-13 induced CD23 expression on human monocytes (recombinant human IL-13 [8]): 13 pM | IC50 (median), CD23 expression, Human Whole Blood (recombinant human IL-13 [9]): 10.2 pM | IC50 (median), CD23 expression, Peripheral Blood Monocytes (recombinant human IL-13 [9]): 13 pM | IC50 (median), CD23 expression, Human Whole Blood [10]: 41.9 pM | IC50 (median), CD23 expression, Peripheral Blood Monocytes [10]: 31.6 pM | IC50 (median), IL-13 induced CD23 expression on human monocytes (recombinant human IL-13 [11]): 13 pM | Kd (recombinant human IL-4 [13]): 0.323 pM | Kd [14]: < 0.661 pM | Kd (recombinant human IL-13 [15]): 0.266 pM | Kd [16]: 0.581 pM
B2: IL413TSLP-1024 (other)
heavy: not shown
chain 1: B1 chain 1
light 1: SYVLTQPPSVSVAPGQTARITCGGNNLGSKSVHWYQQKPGQAPVLVVYDDKDRPSWIPERFSGSNSGNTATLTISRGEAGDEADYYCQVWDSKSDHVVFGGGTKLTVLGQPKAAPSVTLFPPSSEELQANKATLVCLISDFYPGAVTVAWKADSSPVKAGVETTTPSKQSNNKYAASSYLSLTPEQWKSHRSYSCQVTHEGSTVEKTVAPTECS
light 2: B1 light 2
chain 2: B1 chain 2
notes: Trispecific Tri-Fab-Fc, dual cell, RR-EE, LS; Chains in order: SFab HC(3), DFab LC(1)-HC(2), SFab LC(3), DFab LC(2), modified Fd(1)

pSTAT6 IC50 [pM] (human IL-4 [17]): 125 pM | pSTAT6: Fold bioactivity relative to IL4-1284 (human IL-4 [18]): 1 fold | pSTAT6: Fold bioactivity relative to IL4-1285 (human IL-4 [18]): 0.6 fold | pSTAT6 IC50 [pM] (human IL-4 [18]): 125 pM
B4: IL4-1284 (antibody, human IgG1, kappa, V domains shown)
VH: QVTLRESGPALVKPTQTLTLTCTFSGFSLSTSGMGVSWIRQPPGKGLEWLAHIYWDDDKRYNPSLKSRLTISKDTSRNQVVLTMTNMDPVDTATYYCARRETVFYWYFDVWGRGTPVTVSS
VL: DIVMTQSPDSLAVSLGERATINCKASQSVDYDGDSYMNWYQQKPGQPPKLLIYAASNLESGVPDRFSGSGSGTDFTLTISSLQAEDVAVYYCQQSNEDPPRFGGGTKVEIKR

From US20240117030A1 (Pfizer, published 2024)
